Test results reported in paper PMC2877798.

Tests used:
[1] = biological target: SNT, residues 1–215 of the HsdS (specificity) subunit of EcoR124I (UniProt P10485); assay: AUC; sedimentation velocity of SNT alone at 25 μM; 30,000 rpm, 10 °C, buffer A (10 mM Tris–HCl, pH 8.0, 100 mM NaCl, 1 mM Na2EDTA), 280 nm; c(s)/c(M) analysis with SEDFIT
[2] = biological target: M.EcoR124INT methyltransferase (hetero-tetramer of two SNT and two M subunits) (UniProt P10485)
[3] = biological target: SNT, residues 1–215 of the HsdS (specificity) subunit of EcoR124I (UniProt P10485); assay: AUC; sedimentation velocity of reconstituted M.EcoR124INT at 2.6 μM; 30,000 rpm, 10 °C, buffer A, 280 nm; c(s)/c(M) analysis with SEDFIT
[4] = biological target: SNT, residues 1–215 of the HsdS (specificity) subunit of EcoR124I (UniProt P10485); assay: AUC; sedimentation equilibrium of reconstituted M.EcoR124INT at 2.5 to 8.8 μM; 6500 rpm and 8500 rpm, 276 nm, global fit to a single ideal species model

Molecule “SNT, residues 1–215 of the HsdS (specificity) subunit of EcoR124I (from UniProt P10485 1-215) (domain or fragment)” has a stoichiometry N [1] of 2.

B1: ocr (“overcome classical restriction”) protein (natural protein)
chain: MAMSNMTYNNVFDHAYEMLKENIRYDDIRDTDDLHDAIHMAADNAVPHYYADIFSVMASEGIDLEFEDSGLMPDTKDVIRILQARIYEQLTIDLWEDAEDLLNEYLEEVEEYEEDEE
With B1 the inhibition of in vitro DNA methylation by M.EcoR124INT (EcoRI protection assay; 50 nM MTase, 50 nM ocr dimer incubated with the MTase before DNA, 37 °C, 10 mM MgCl2) [2] was 50%.

B2: M subunit (HsdM) of EcoR124I (natural protein)
chain: MKMTSIQQRAELHRQIWQIANDVRGSVDGWDFKQYVLGALFYRFISENFSSYIEAGDDSICYAKLDDSVITDDIKDDAIKTKGYFIYPSQLFCNVAAKANTNDRLNADLNSIFVAIESSAYGYPSEADIKGLFADFDTTSNRLGNTVKDKNARLAAVLKGVEGLKLGDFNEHQIDLFGDAYEFLISNYAANAGKSGGEFFTPQHVSKLIAQLAMHGQTHVNKIYDPAAGSGSLLLQAKKQFDNHIIEEGFFGQEINHTTYNLARMNMFLHNINYDKFDIKLGNTLTEPHFRDEKPFDAIVSNPPYSVKWIGSDDPTLINDERFAPAGVLAPKSKADFAFVLHALNYLSAKGRAAIVCFPGIFYRGGAEQKIRQYLVDNNYVETVISLAPNLFFGTTIAVNILVLSKHKTDTNVQFIDASELFKKETNNNILTDAHIEQIMQVFASKEDVAHLAKSVAFETVVANDYNLSVSSYVEAKDNREIIDIAELNAELKTTVSKIDQLRKDIDAIVAEIEGCEVQK
With B2 the stoichiometry N (M per SNT (2:2 hetero-tetramer)) [3] was 1 and the stoichiometry N (M per SNT (2:2 hetero-tetramer)) [4] was 1.
